According to the supplement of paper PMC7125110:
± gives the standard error. For some of these results: Fewer inactive variants are shown than the library holds.

B1: glmS ribozyme (parent)
chain: AUAAAAGCGCCAGAACUACAGAAAUGUAGUUGACGAGGAGGAGGUUUAUCGAAUUUUCGGCGGAUGCCUCCAAA

Tests used:
Conditions in all cases: with glucosamine-6-phosphate
glucosamine-6-phosphate [1] = variants of: B1; test: kcat; higher = faster cleavage; RNA array
Outline: (§1)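 Tiles of sequenced MiSeq chips were imaged over ~14 h at 37 °C. On them, barcoded ribozyme variants had been transcribed in situ by E. coli RNA polymerase and were tracked via a hybridised Cy3 probe while glucosamine-6-phosphate (40 μM to 10 mM) in HEPES/KCl/Mg(OAc)2 buffer flowed in. Per-tile medians, normalised to baseline and to non-cleaving reference variants, were fit to one- or two-exponential decays for kobs, and weighted Michaelis–Menten fits gave kcat and KM.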

glucosamine-6-phosphate [2] = variants of: B1; test: KM; higher = weaker cofactor use; RNA array
Outline: as §1

glucosamine-6-phosphate [3] = variants of: B1; test: self-cleavage kobs at 40 uM GlcN6P; higher = faster cleavage; RNA array
Outline: as §1

glucosamine-6-phosphate [4] = variants of: B1; test: self-cleavage kobs at 160 uM GlcN6P; higher = faster cleavage; RNA array
Outline: as §1

glucosamine-6-phosphate [5] = variants of: B1; test: self-cleavage kobs at 640 uM GlcN6P; higher = faster cleavage; RNA array
Outline: as §1

glucosamine-6-phosphate [6] = variants of: B1; test: self-cleavage kobs at 2500 uM GlcN6P; higher = faster cleavage; RNA array
Outline: as §1

glucosamine-6-phosphate [7] = variants of: B1; test: self-cleavage kobs at 10000 uM GlcN6P; higher = faster cleavage; RNA array
Outline: as §1

| Variant | kcat (glucosamine-6-phosphate [1]) [s⁻¹] | KM (glucosamine-6-phosphate [2]) [µM] | self-cleavage kobs at 40 uM GlcN6P (glucosamine-6-phosphate [3]) [s⁻¹] | self-cleavage kobs at 160 uM GlcN6P (glucosamine-6-phosphate [4]) [s⁻¹] | self-cleavage kobs at 640 uM GlcN6P (glucosamine-6-phosphate [5]) [s⁻¹] | self-cleavage kobs at 2500 uM GlcN6P (glucosamine-6-phosphate [6]) [s⁻¹] | self-cleavage kobs at 10000 uM GlcN6P (glucosamine-6-phosphate [7]) [s⁻¹] |
| --- | --- | --- | --- | --- | --- | --- | --- |
| U30A C71U | 0.0039 ± 0.00081 | 1470 ± 450 | 0.000127 ± 2.5e-05 | 0.000337 ± 8e-05 | 0.00116 ± 0.00024 | 0.0021 ± 0.00045 | 0.00416 ± 0.00086 |
| U30G U65C | 0.000117 ± 2.1e-05 | – | – | – | 4.91e-05 ± 1.7e-05 | 0.000122 ± 2.6e-05 | 9.72e-05 ± 2.2e-05 |
| U30G U65G | 0.00191 ± 0.00048 | 3590 ± 1400 | – | 8.07e-05 ± 1.4e-05 | 0.000378 ± 6e-05 | 0.000614 ± 0.0001 | 0.00155 ± 0.00019 |
| U30G U65A | 0.00108 ± 0.00019 | 3500 ± 1100 | 3.04e-05 ± 1.2e-05 | – | 0.000157 ± 2.9e-05 | 0.000483 ± 0.00014 | 0.000797 ± 0.0001 |
| U30C U45C | 3.55e-05 ± 1.6e-05 | – | < 1e-05 | – | – | 4.35e-05 ± 2.1e-05 | – |
| U30C U45A | 0.000449 ± 4.9e-05 | 1150 ± 280 | – | 5.04e-05 ± 1.7e-05 | 0.000176 ± 3.8e-05 | 0.000235 ± 8.7e-05 | 0.000418 ± 6e-05 |
| U30G A48U | 7.56e-05 ± 6e-06 | 1040 ± 340 | < 1e-05 | < 1e-05 | – | 5.84e-05 ± 1.2e-05 | 6.65e-05 ± 1.1e-05 |
| U30G C68A | 2.01e-05 ± 5.2e-06 | – | – | – | – | – | – |
| G29U C67G | 0.000311 ± 6.2e-05 | 3390 ± 1100 | – | 2.38e-05 ± 1e-05 | 5.43e-05 ± 5.8e-06 | 0.000111 ± 1.3e-05 | 0.000251 ± 2.4e-05 |
| U31C A48U | 6.21e-05 ± 6.5e-06 | 2780 ± 1100 | < 1e-05 | < 1e-05 | – | – | 4.85e-05 ± 9.7e-06 |
| U30G U46A | 0.000655 ± 7e-05 | 3710 ± 930 | – | – | – | 0.000252 ± 5.8e-05 | 0.000483 ± 6.6e-05 |
| U30C A39G | 0.00121 ± 0.00015 | 3930 ± 730 | – | 5.74e-05 ± 1.6e-05 | 0.00016 ± 2.7e-05 | 0.00046 ± 6.8e-05 | 0.000888 ± 0.00014 |
| U31C G44U C67G | 0.00162 ± 0.00031 | 2430 ± 830 | – | – | 0.00032 ± 7.1e-05 | 0.0011 ± 0.00027 | 0.00124 ± 0.00024 |
| U30A A52G | 0.00117 ± 0.00025 | 5730 ± 1500 | – | 4.07e-05 ± 1.7e-05 | 0.000114 ± 1.2e-05 | 0.00054 ± 0.00022 | 0.000737 ± 0.00012 |
| U30G U55C | 0.00519 ± 0.00037 | 883 ± 120 | 0.000236 ± 5e-05 | – | 0.00192 ± 0.00068 | 0.00363 ± 0.00086 | 0.00502 ± 0.00092 |
| U30G U55G | 0.00756 ± 0.0019 | 1440 ± 590 | 0.00025 ± 5.1e-05 | – | 0.00222 ± 0.00047 | 0.00378 ± 0.00086 | 0.00866 ± 0.0016 |
| G29U C70A | 6.65e-05 ± 8.1e-06 | – | – | – | 4.74e-05 ± 7.5e-06 | 6.79e-05 ± 7.2e-06 | 5.54e-05 ± 7.6e-06 |
| U31C A53C | 0.00137 ± 0.00011 | 2260 ± 350 | – | 0.00011 ± 3.6e-05 | 0.00028 ± 8e-05 | 0.0007 ± 0.00011 | 0.00116 ± 0.0002 |
| U30A G41C | 4.61e-05 ± 3.9e-06 | 5270 ± 1100 | < 1e-05 | – | – | – | – |
| U31A U54G | 0.0208 ± 0.0046 | 3520 ± 990 | 0.00027 ± 3.9e-05 | 0.00075 ± 0.00015 | 0.00291 ± 0.00094 | 0.016 ± 0.0066 | 0.0152 ± 0.0024 |
| U30G U31C | 0.00345 ± 0.00042 | 2530 ± 520 | 4.81e-05 ± 8.9e-06 | 0.000238 ± 3.9e-05 | 0.000578 ± 0.00015 | 0.00207 ± 0.0003 | 0.00267 ± 0.00025 |
| U31A U46A | 0.00237 ± 0.00062 | 5680 ± 2600 | 3.33e-05 ± 1.3e-05 | 4.27e-05 ± 1.9e-05 | 0.000292 ± 9.4e-05 | 0.000857 ± 0.0002 | 0.00149 ± 0.00018 |
| U31C A33C | < 1e-05 | 5010 ± 1800 | < 1e-05 | < 1e-05 | – | – | – |
| U30G U56G | 0.00526 ± 0.0018 | – | 0.000182 ± 3.7e-05 | – | 0.00189 ± 0.00062 | 0.00266 ± 0.00073 | 0.00705 ± 0.0016 |
| U30C C67A | 8.57e-05 ± 7.5e-06 | – | – | – | 7.21e-05 ± 1.3e-05 | 6.84e-05 ± 1.1e-05 | 8.63e-05 ± 8.9e-06 |
| U31A A48U | 9.44e-05 ± 4.1e-05 | – | – | – | 4.25e-05 ± 1.5e-05 | 5.43e-05 ± 1.6e-05 | 0.000133 ± 4.7e-05 |
| U31C C70A | 6.32e-05 ± 4.7e-06 | 135 ± 56 | – | 2.96e-05 ± 1.2e-05 | 5.83e-05 ± 9.7e-06 | 5.7e-05 ± 1.6e-05 | 5.89e-05 ± 1.2e-05 |
| U30A C50A A52G | < 1e-05 | 39.4 ± 20 | – | – | < 1e-05 | – | < 1e-05 |
| U30G C67U | 0.00191 ± 0.00047 | 924 ± 380 | 9.9e-05 ± 2.5e-05 | 0.000289 ± 5.9e-05 | 0.000697 ± 0.00011 | 0.00139 ± 0.00022 | 0.00378 ± 0.0013 |
